{
  "source": "patent US6569841B1",
  "about": "“Ion exchange tumor targeting (IETT)” (MAP Medical Technologies OY, priority 1998, dated 2003)",
  "tested_on": "bladder tumor tissue (epidermal growth factor positive superficial transitional cell bladder carcinoma)",
  "assay": "Radioactive uptake in bladder tumor vs normal bladder tissue after instillation in the bladder of patients (ttn ratio)",
  "conditions": "200 mL of 0.25 μg/mL in saline instilled in the bladder for 30 minutes, washed out, mean values",
  "procedure": "Nine patients having epidermal growth factor positive superficial transitional cell bladder carcinoma were studied.\n200 mL of the polymers, of the concentration 0.25 μg/mL in saline, were instilled through an urethral catether and kept in the bladder for 30 minutes and were then carefully washed out with approximately 400 mL saline. The patients were then operated on and samples were taken from normal bladder tissue and bladder tumor tissue, respectively. The samples were weighed and counted in gamma counter and the radioactive uptake was calculated as cpm/g tissue. The target to non-target (ttn) ratio was calculated.",
  "data": [
    {"substance": "Tc-99m-lysine dextran", "values": [
      {"measurement": "radioactive uptake, ttn (target to non-target ratio, tumor vs normal bladder tissue, cpm/g)", "value": "highest target to non-target ratio"}
    ]}
  ]
}
